{"source": "FireProtDB (doi:10.1006/jmbi.1999.2772)", "conditions": "Thermotoga maritima (strain ATCC 43589 / DSM 3109 / JCM 10099 / NBRC 100826 / MSB8), Thermal, DSC", "key": {"[1]": {"conditions": "pH 4, Sodium acetate 20 mM, reversible: yes"}, "[2]": {"conditions": "pH 4.5, Sodium acetate 20 mM, reversible: yes(94%)"}, "[3]": {"conditions": "pH 4.8, Sodium acetate 20 mM, reversible: yes(91%)"}, "[4]": {"conditions": "pH 5.7, Sodium cacodylate-HCl 20 mM, reversible: yes(97%)"}, "[5]": {"conditions": "pH 6, Sodium cacodylate-HCl 20 mM, reversible: yes(98%)"}, "[6]": {"conditions": "pH 6.1, Sodium cacodylate-HCl 20 mM, reversible: yes(97%)"}, "[7]": {"conditions": "pH 6.35, Sodium cacodylate-HCl 20 mM, reversible: yes"}, "[8]": {"conditions": "pH 6.75, Sodium cacodylate-HCl 20 mM, reversible: yes"}, "[9]": {"conditions": "pH 7, Sodium cacodylate-HCl 20 mM, reversible: yes(95%)"}, "[10]": {"conditions": "pH 7.2, Sodium phosphate 20 mM, reversible: yes(97%)"}, "[11]": {"conditions": "pH 7.25, Sodium cacodylate-HCl 20 mM, reversible: yes(98%)"}, "[12]": {"conditions": "pH 7.4, Sodium phosphate 20 mM, reversible: yes(98%)"}, "[13]": {"conditions": "pH 7.5, Sodium phosphate 20 mM, reversible: yes(97%)"}, "[14]": {"conditions": "pH 8.1, borate-NaOH 20 mM, reversible: yes(99%)"}, "[15]": {"conditions": "pH 8.4, borate-NaOH 20 mM, reversible: yes(97%)"}, "[16]": {"conditions": "pH 8.5, borate-NaOH 20 mM, reversible: yes(98%)"}, "[17]": {"conditions": "pH 8.9, borate-NaOH 20 mM, reversible: yes"}}}
{"substance": "Cold shock-like protein wild type, O54310", "values": [{"measurement": "Tm", "setting": "[1]", "result": 87.9, "unit": "°C"}, {"measurement": "heat capacity change of unfolding", "setting": "[1]", "result": 0.36, "unit": "kcal/mol/K"}, {"measurement": "unfolding enthalpy (calorimetric)", "setting": "[1]", "result": 50.1, "unit": "kcal/mol"}, {"measurement": "Tm", "setting": "[2]", "result": 91.6, "unit": "°C"}, {"measurement": "heat capacity change of unfolding", "setting": "[2]", "result": 0.05, "unit": "kcal/mol/K"}, {"measurement": "unfolding enthalpy (calorimetric)", "setting": "[2]", "result": 56.2, "unit": "kcal/mol"}, {"measurement": "Tm", "setting": "[3]", "result": 94.1, "unit": "°C"}, {"measurement": "heat capacity change of unfolding", "setting": "[3]", "result": 0.22, "unit": "kcal/mol/K"}, {"measurement": "unfolding enthalpy (calorimetric)", "setting": "[3]", "result": 62, "unit": "kcal/mol"}, {"measurement": "unfolding enthalpy (van 't Hoff)", "setting": "[3]", "result": 57, "unit": "kcal/mol"}, {"measurement": "Tm", "setting": "[4]", "result": 93.3, "unit": "°C"}, {"measurement": "heat capacity change of unfolding", "setting": "[4]", "result": 0.08, "unit": "kcal/mol/K"}, {"measurement": "unfolding enthalpy (calorimetric)", "setting": "[4]", "result": 71.9, "unit": "kcal/mol"}, {"measurement": "unfolding enthalpy (van 't Hoff)", "setting": "[4]", "result": 68.3, "unit": "kcal/mol"}, {"measurement": "Tm", "setting": "[5]", "result": 92.1, "unit": "°C"}, {"measurement": "heat capacity change of unfolding", "setting": "[5]", "result": 0.17, "unit": "kcal/mol/K"}, {"measurement": "unfolding enthalpy (calorimetric)", "setting": "[5]", "result": 74.6, "unit": "kcal/mol"}, {"measurement": "unfolding enthalpy (van 't Hoff)", "setting": "[5]", "result": 71, "unit": "kcal/mol"}, {"measurement": "Tm", "setting": "[6]", "result": 91.2, "unit": "°C"}, {"measurement": "heat capacity change of unfolding", "setting": "[6]", "result": 0.55, "unit": "kcal/mol/K"}, {"measurement": "unfolding enthalpy (calorimetric)", "setting": "[6]", "result": 69.5, "unit": "kcal/mol"}, {"measurement": "unfolding enthalpy (van 't Hoff)", "setting": "[6]", "result": 64.5, "unit": "kcal/mol"}, {"measurement": "Tm", "setting": "[7]", "result": 89.6, "unit": "°C"}, {"measurement": "heat capacity change of unfolding", "setting": "[7]", "result": 0.5, "unit": "kcal/mol/K"}, {"measurement": "unfolding enthalpy (calorimetric)", "setting": "[7]", "result": 68, "unit": "kcal/mol"}, {"measurement": "unfolding enthalpy (van 't Hoff)", "setting": "[7]", "result": 63, "unit": "kcal/mol"}, {"measurement": "Tm", "setting": "[8]", "result": 85.8, "unit": "°C"}, {"measurement": "heat capacity change of unfolding", "setting": "[8]", "result": 0.18, "unit": "kcal/mol/K"}, {"measurement": "unfolding enthalpy (calorimetric)", "setting": "[8]", "result": 65, "unit": "kcal/mol"}, {"measurement": "unfolding enthalpy (van 't Hoff)", "setting": "[8]", "result": 58.3, "unit": "kcal/mol"}, {"measurement": "Tm", "setting": "[9]", "result": 82, "unit": "°C"}, {"measurement": "heat capacity change of unfolding", "setting": "[9]", "result": 0.36, "unit": "kcal/mol/K"}, {"measurement": "unfolding enthalpy (calorimetric)", "setting": "[9]", "result": 62.6, "unit": "kcal/mol"}, {"measurement": "unfolding enthalpy (van 't Hoff)", "setting": "[9]", "result": 60.8, "unit": "kcal/mol"}, {"measurement": "Tm", "setting": "[10]", "result": 83.1, "unit": "°C"}, {"measurement": "heat capacity change of unfolding", "setting": "[10]", "result": 0.22, "unit": "kcal/mol/K"}, {"measurement": "unfolding enthalpy (calorimetric)", "setting": "[10]", "result": 65.3, "unit": "kcal/mol"}, {"measurement": "unfolding enthalpy (van 't Hoff)", "setting": "[10]", "result": 61, "unit": "kcal/mol"}, {"measurement": "Tm", "setting": "[11]", "result": 82.8, "unit": "°C"}, {"measurement": "heat capacity change of unfolding", "setting": "[11]", "result": 0.4, "unit": "kcal/mol/K"}, {"measurement": "unfolding enthalpy (calorimetric)", "setting": "[11]", "result": 61.3, "unit": "kcal/mol"}, {"measurement": "unfolding enthalpy (van 't Hoff)", "setting": "[11]", "result": 57.5, "unit": "kcal/mol"}, {"measurement": "Tm", "setting": "[12]", "result": 80.8, "unit": "°C"}, {"measurement": "heat capacity change of unfolding", "setting": "[12]", "result": 0.38, "unit": "kcal/mol/K"}, {"measurement": "unfolding enthalpy (calorimetric)", "setting": "[12]", "result": 60.8, "unit": "kcal/mol"}, {"measurement": "unfolding enthalpy (van 't Hoff)", "setting": "[12]", "result": 55.7, "unit": "kcal/mol"}, {"measurement": "Tm", "setting": "[13]", "result": 81.1, "unit": "°C"}, {"measurement": "heat capacity change of unfolding", "setting": "[13]", "result": 0.11, "unit": "kcal/mol/K"}, {"measurement": "unfolding enthalpy (calorimetric)", "setting": "[13]", "result": 54.4, "unit": "kcal/mol"}, {"measurement": "unfolding enthalpy (van 't Hoff)", "setting": "[13]", "result": 50.4, "unit": "kcal/mol"}, {"measurement": "Tm", "setting": "[14]", "result": 81, "unit": "°C"}, {"measurement": "heat capacity change of unfolding", "setting": "[14]", "result": 0.01, "unit": "kcal/mol/K"}, {"measurement": "unfolding enthalpy (calorimetric)", "setting": "[14]", "result": 54.7, "unit": "kcal/mol"}, {"measurement": "unfolding enthalpy (van 't Hoff)", "setting": "[14]", "result": 51, "unit": "kcal/mol"}, {"measurement": "Tm", "setting": "[15]", "result": 77.5, "unit": "°C"}, {"measurement": "heat capacity change of unfolding", "setting": "[15]", "result": 0.5, "unit": "kcal/mol/K"}, {"measurement": "unfolding enthalpy (calorimetric)", "setting": "[15]", "result": 56.1, "unit": "kcal/mol"}, {"measurement": "Tm", "setting": "[16]", "result": 77.6, "unit": "°C"}, {"measurement": "heat capacity change of unfolding", "setting": "[16]", "result": 0.06, "unit": "kcal/mol/K"}, {"measurement": "unfolding enthalpy (calorimetric)", "setting": "[16]", "result": 53.9, "unit": "kcal/mol"}, {"measurement": "unfolding enthalpy (van 't Hoff)", "setting": "[16]", "result": 51.7, "unit": "kcal/mol"}, {"measurement": "Tm", "setting": "[17]", "result": 75.5, "unit": "°C"}, {"measurement": "heat capacity change of unfolding", "setting": "[17]", "result": 0.5, "unit": "kcal/mol/K"}, {"measurement": "unfolding enthalpy (calorimetric)", "setting": "[17]", "result": 56.1, "unit": "kcal/mol"}]}
